Target: dna2-D657A (nuclease-dead);RPA (Saccharomyces cerevisiae;Saccharomyces …, UniProt P38859;P22336;P26754;P26755 1-1522;1-621;1-273;1-122, D657A|)
Assay: EMSA; ternary complex; EMSA: 25 mM Tris-HCl pH 7.5, 150 mM KCl, 1 mM DTT, 100 µg/mL BSA, 5 nM DNA, 30 °C 10 min, 4% native PAGE in 0.2x TBE; DNA curtains: 50 or 150 mM NaCl, 0.1 nM RPA-GFP
Details: protein: recombinant;recombinant; tags: His6, FLAG;none; copies: 1;1;1;1; label: 32P 5'-end; 5' overhang 30 nt (dT30), 20 bp duplex

dna2-D657A (nuclease-dead);RPA, sequence (P38859 whole entry D657A, chain 1 of 4): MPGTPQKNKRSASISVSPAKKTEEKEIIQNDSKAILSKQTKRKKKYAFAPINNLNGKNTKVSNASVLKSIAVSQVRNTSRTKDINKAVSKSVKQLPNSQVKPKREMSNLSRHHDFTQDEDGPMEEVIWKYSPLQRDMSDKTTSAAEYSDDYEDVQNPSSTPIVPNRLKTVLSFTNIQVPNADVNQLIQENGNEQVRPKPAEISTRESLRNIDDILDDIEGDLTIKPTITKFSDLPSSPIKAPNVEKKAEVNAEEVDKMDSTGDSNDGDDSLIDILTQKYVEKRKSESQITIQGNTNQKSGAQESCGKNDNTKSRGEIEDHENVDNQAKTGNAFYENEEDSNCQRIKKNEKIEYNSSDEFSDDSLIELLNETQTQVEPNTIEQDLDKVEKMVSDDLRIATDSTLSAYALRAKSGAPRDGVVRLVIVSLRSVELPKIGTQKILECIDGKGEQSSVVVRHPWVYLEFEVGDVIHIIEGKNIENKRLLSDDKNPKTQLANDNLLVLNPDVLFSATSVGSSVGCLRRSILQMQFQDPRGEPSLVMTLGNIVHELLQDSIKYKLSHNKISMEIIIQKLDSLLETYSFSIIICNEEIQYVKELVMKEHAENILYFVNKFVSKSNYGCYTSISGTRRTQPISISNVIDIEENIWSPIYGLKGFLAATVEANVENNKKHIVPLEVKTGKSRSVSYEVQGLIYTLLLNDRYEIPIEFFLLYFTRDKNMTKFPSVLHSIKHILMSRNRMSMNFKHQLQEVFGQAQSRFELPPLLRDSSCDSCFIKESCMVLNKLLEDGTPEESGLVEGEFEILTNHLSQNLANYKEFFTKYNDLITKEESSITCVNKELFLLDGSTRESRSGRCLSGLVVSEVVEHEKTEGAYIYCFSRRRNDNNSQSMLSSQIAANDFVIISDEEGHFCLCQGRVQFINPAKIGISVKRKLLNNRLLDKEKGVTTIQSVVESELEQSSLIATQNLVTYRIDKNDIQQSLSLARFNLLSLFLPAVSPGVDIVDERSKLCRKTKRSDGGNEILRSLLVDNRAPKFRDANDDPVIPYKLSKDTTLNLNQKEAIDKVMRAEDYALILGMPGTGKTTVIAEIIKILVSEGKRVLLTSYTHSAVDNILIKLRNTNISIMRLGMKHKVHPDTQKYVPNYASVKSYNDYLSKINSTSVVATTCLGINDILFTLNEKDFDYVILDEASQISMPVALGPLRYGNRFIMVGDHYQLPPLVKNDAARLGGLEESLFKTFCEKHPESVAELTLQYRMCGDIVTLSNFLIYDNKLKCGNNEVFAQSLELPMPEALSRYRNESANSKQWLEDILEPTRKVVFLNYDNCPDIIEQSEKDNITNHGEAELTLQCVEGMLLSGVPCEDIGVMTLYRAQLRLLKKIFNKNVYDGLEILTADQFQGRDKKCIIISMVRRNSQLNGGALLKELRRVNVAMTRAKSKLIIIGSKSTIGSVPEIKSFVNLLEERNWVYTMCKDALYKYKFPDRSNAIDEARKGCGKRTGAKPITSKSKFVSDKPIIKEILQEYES
dna2-D657A (nuclease-dead);RPA, sequence (P22336 whole entry, chain 2 of 4): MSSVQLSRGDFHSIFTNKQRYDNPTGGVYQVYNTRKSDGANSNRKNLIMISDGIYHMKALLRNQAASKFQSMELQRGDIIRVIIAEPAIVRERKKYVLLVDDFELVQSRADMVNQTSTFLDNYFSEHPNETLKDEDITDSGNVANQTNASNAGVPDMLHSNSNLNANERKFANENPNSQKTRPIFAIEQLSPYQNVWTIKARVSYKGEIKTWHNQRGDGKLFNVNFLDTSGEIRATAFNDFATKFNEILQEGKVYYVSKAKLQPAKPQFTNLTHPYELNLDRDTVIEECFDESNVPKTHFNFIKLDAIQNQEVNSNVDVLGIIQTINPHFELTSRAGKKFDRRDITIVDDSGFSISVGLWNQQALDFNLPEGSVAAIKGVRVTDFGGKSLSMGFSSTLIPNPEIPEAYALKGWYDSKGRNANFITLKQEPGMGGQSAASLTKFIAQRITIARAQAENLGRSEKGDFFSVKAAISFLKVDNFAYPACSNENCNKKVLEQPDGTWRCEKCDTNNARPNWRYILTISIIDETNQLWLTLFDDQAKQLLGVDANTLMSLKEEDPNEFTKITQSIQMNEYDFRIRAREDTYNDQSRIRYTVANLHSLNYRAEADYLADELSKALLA
dna2-D657A (nuclease-dead);RPA, sequence (P26754 whole entry, chain 3 of 4): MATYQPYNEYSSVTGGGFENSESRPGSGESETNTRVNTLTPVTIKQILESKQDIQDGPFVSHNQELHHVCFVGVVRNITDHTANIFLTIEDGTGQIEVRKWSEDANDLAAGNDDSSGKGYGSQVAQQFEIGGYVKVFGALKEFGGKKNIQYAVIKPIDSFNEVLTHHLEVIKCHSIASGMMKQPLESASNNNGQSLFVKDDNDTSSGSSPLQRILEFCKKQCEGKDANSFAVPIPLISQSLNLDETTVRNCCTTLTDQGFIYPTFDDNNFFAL
dna2-D657A (nuclease-dead);RPA, sequence (P26755 whole entry, chain 4 of 4): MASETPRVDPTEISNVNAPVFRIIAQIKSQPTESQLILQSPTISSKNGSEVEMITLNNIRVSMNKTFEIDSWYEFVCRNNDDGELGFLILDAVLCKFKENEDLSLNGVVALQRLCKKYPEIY

B1: 5'-overhanging dT(30) DNA (S10+S11) (mixed)
DNA 1: TTTTTTTTTTTTTTTTTTTTTTTTTTTTTTTTGATAAGAGGTCATTTGAA
DNA 2: TTCAAATGACCTCTTATCAA
  binding result: binds

— publication PMC8766458, “Deciphering the mechanism of processive ssDNA digestion by the Dna2-RPA ensemble” (Nature Communications, 2022)
